Experimental data published in US20160279204A1, “PEPTIDES AND PHARMACEUTICAL COMPOSITIONS FOR USE IN THE TREATMENT BY NASAL ADMINISTRATION OF PATIENTS SUFFERING FROM ANXIETY AND SLEEP DISORDERS” (MAX-PLANCK-GESELLSCHAFT ZUR FÖRDERUNG DER WISSENSCHAFT E.V., priority 2011, published 2016).
“Also recorded” adds a separate entry of the source. No end group written: not given here.

Assays:
[1] = system: evoked neuronal activity flow from the dentate gyrus to area CA1; assay: Voltage-sensitive dye imaging (VSDI) in VH slices; design: species or system mouse; conditions: (R)-SHA 68 10 μM, pretreatment 15 min, NPS 1 μM
Description: According to Maggio and Segal (2007) and Fanselow and Dong (2010), VSDI experiments were conducted in the VH. Horizontal brain slices (350 μm-thick) were prepared as described in Refojo et al., 2011 and/or von Wolff et al., 2011). Only the first two slices from the ventral surface of the brain in which the CA1 region was clearly visible were used for the measurements. Staining of slices with the voltage-sensitive dye Di-4-ANEPPS and VSDI were carried out at room temperature (23-25° C.). For staining, slices were kept for 15 min in carbogenated (95% O2/5% CO2) ACSF containing Di-4-ANEPPS (7.5 μg/mL; <0.1% DMSO). The ACSF (pH 7.4) consisted of (in mM): 125 NaCl, 2.5 KCl, 25 NaHCO3, 1.25 NaH2PO4, 2 CaCl2, 1 MgCl2, and 25 glucose. Afterwards, slices were stored for at least 30 min in pure carbogenated ACSF. In the recording chamber, slices were continuously superfused with carbogenated ACSF (3 mL/min flow rate). VSDI and data analysis were performed using the MiCAM02 hard- and software package (BrainVision, Tokyo, Japan). The tandem-lens fluorescence microscope was equipped with the MiCAM02-HR camera and the 2× and 1× lens at the objective and condensing side, respectively. Acquisition settings were: 88×60 pixels frame size, 36.4×40.0 μm pixel size, and 2.2 ms sampling time. To reduce noise, four acquisitions subsequently recorded at intervals of 5 s were averaged. Neuronal activity was evoked by square pulse electrical stimuli (200 μs, 15-20 V) delivered to the dentate gyrus granule cell layer via a custom-made monopolar tungsten electrode (Teflon-insulated to the tip of 75 μm diameter). From recorded signals, the fractional change in fluorescence (ΔF/F) was calculated. For all quantifications, ΔF/F values were spatially and temporally smoothed using a 3×3×3 average filter. VSDI signals presented in images were smoothed with a 5×5×3 average filter. Pixelation of images was reduced by the interpolation function of the MiCAM02 software. […]

[2] = system: NPS target cells in the murine brain; conditions: mouse, in vivo
Description: The mice were sacrificed 30 min post-injection.
Immunohistochemistry was performed on free-floating cryosections (40 μm).

ventral hippocampus (VH) = assay: Spread of Cy3-NPS after microinjection into area CA1 of the VH; type: in vivo, mouse; conditions: 0.07 nmol unilaterally into CA1 of VH, 30 min after injection
Description: Animals were fixed in a stereotactic frame and maintained under isoflurane anesthesia (Forene® 100%, V/V; induction: 2.5%; maintenance: 1.5%; in O2; flow rate: 1 L/min). The mice received acute analgesic treatment with Metacam s.c. during surgery (0.5 mg/kg; in NaCl). 23 gauge stainless-steel guide cannulas were implanted in the CA1 region of the VH at the following coordinates: 3.1 mm posterior, ±3 mm lateral from bregma, and 2 mm ventral from the skull surface (Franklin and Paxinos, 2007). The guide cannulas were fixed with two screws and a two-component adhesive. For behavioural experiments, animals were implanted bilaterally for later bilateral injection, whereas for Cy3-NPS injections, implantation was performed unilaterally. The animals were allowed to recover for at least 6 days before starting the behavioural experiments. Substance infusions were carried out manually, on mice anesthetised by brief inhalation of isoflurane, using a 30 gauge injection cannula connected to a Tygon tube and a 10 μL Hamilton syringe. After infusion, the injection cannula was kept in place for additional 30 s to prevent substance outflow.
Cy3-NPS was administered unilaterally at a concentration of 0.07 nmol in a volume of 0.7 μL ACSF. […] After mounting with a fluorescence-preserving medium (Shandon Immu-Mount, Thermo Scientific, Bonn, Germany), sections were stored at 4° C.

brain target neurons = conditions: mouse, in vivo, 4 h
Description: For intranasal application, the anesthetised mice were placed in a supine position, with the head supported at a 450 angle to the body as reported elsewhere (van den Berg et al., 2002). […] The mice were sacrificed at 15 min, 30 min and 4 hrs after the first application.
Brains were removed, post-fixed in 4% formaldehyde and cryoprotected in 20% sucrose, then shock-frozen in methylbutane. Immunohistochemistry was performed on free-floating cryosections (40 μm). The primary antibodies used were specific for neurofilament (1:1000; Abcam, Cambridge, UK) and GFAP (1:250; DAKO, Glostrup, Denmark). The secondary antibodies used were specific for mouse (Alexa 488 goat anti-mouse IgG) and rabbit (Alexa 488 donkey anti-rabbit IgG) (1:300; Invitrogen, Leek, The Netherlands). The sections were counterstained with DAPI (200 ng/ml; Carl Roth, Karlsruhe, Germany) and mounted with a fluorescence-preserving mounting medium (Shandon Immu-Mount, Thermo Scientific, Waltham, Mass., USA).
After acquisition, the images were processed using Photoshop and Illustrator (Adobe, San Jose, Calif., USA).

EGFP-NPSR = assay: Cy3-NPS uptake in HEK cells transiently transfected with EGFP-NPSR; type: cell-based
Source text: In view of the fact that the NPSR is reported to be the only receptor mediating NPS effects (Duangdao et al., 2009) it may be concluded that the intracellular uptake of Cy3-NPS observed here also in vivo (FIGS. 1A-1D and FIG. 7A) likewise depends on the NPSR.

[3] = system: evoked neuronal activity flow from the dentate gyrus to area CA1; conditions: Refojo et al., 2011, von Wolff et al.; cited from earlier work

For `O=C(NCc1ccc(F)cc1)N1CCN2C(=O)OC(c3ccccc3)(c3ccccc3)[C@H]2C1` [(R)-SHA 68, reference compound], which “effect of NPSR antagonist on the NPS effect” value [1] is on record?
Its value is “completely abolished”.

With “Cy3-NPS: fluorescent NPS-conjugate (Cy3-NPS), Phoenix Pharmaceuticals (SFRNGVGTGMKKTSFQRAKS; also: Cy3 label, place not given here; UniProt P0C0P6 70-89, looked up)” as the molecule, how does the “cellular fluorescence after ICV injection” value [2] read?
Its value is “single cells already exhibited distinct patterns of fluorescence”.

What about the “co-localisation with neurofilament (NF) and GFAP markers” value [2] of the same molecule?
Its value is “co-localised exclusively with the neuronal marker”.

What about the “subcellular localisation in target cells” value [2] of the same molecule?
The value was “found in the cytosol and throughout the processes of target cells”.

What about the “spread of injected Cy3-NPS” value (ventral hippocampus (VH)) of the same molecule?
Its value is “remained locally restricted to the VH and accumulated in single cells of the hippocampal pyramidal, radiate, and oriens layers; also recorded: locally restricted to the site of injection”.

And the “uptake in nuclei of the amygdala” value (ventral hippocampus (VH))?
The value was “not observed”.

And the “remaining Cy3-NPS after intranasal application” value (brain target neurons)?
The value was “almost all traces of Cy3-NPS disappeared”.

What about the “internalisation in HEK cells transfected with EGFP-NPSR” value (EGFP-NPSR; 10 min of incubation with Cy3-NPS) of the same molecule?
The value was “the receptor-ligand complex was internalised and subsequently accumulated in cytoplasmic and perinuclear vesicular structures”.

What about the “uptake in HEK cells transfected with empty EGFP-expression plasmid” value (EGFP-NPSR; control cells without NPSR) of the same molecule?
The value was “did not take up Cy3-NPS molecules”.

For “corticotropin-releasing hormone (SEEPPISLDLTFHLLREVLEMARAEQLAQQAHSNRKLMEII; ends and bridges not checked; UniProt P06850 154-194, looked up) [corticotropin-releasing hormone (CRH), anxiogenic neuropeptide]”, which “activity flow from the dentate gyrus to area CA1” value [3] is on record?
Its value is “enhances this activity flow”.
